Test results from patent US20130012916A1.
Values joined by “and” are separate entries in the source; they are usually repeats but may differ in a detail not shown here. Equal entries are not always repeated.

Tests used:
vWF A1-domain [1] = target: vWF A1-domain (UniProt P04275); assay: SPR (Biacore 3000), vWF A1-domain on CM5 chip, parallel line analysis
vWF A1-domain [2] = target: vWF A1-domain (UniProt P04275); assay: SPR (Biacore 3000), vWF A1-domain on CM5 chip, parallel line analysis; first of two independent analyses
vWF A1-domain [3] = target: vWF A1-domain (UniProt P04275); assay: SPR (Biacore 3000), vWF A1-domain on CM5 chip, parallel line analysis; second of two independent analyses

relative potency versus reference (non lyophilised, stored at -70 C) (vWF A1-domain [1]): 94.8% and 117% and 93.3% | relative potency versus reference (non lyophilised, stored at -70 C) (vWF A1-domain [2]): 94.6% | relative potency versus reference (non lyophilised, stored at -70 C) (vWF A1-domain [3]): 96.1%
B1: Nanobody ALX0081sv1 (vWF0002) (VHH)
chain: DVQLVESGGGLVQPGGSLRLSCAASGRTFSYNPMGWFRQAPGKGRELVAAISRTGGSTYYPESVEGRFTISRDNAKRTVYLQMNSLRAEDTAVYYCAAAGVRAEQGRVRTLPSEYTFWGQGTQVTVSSAAAEVQLVESGGGLVQPGGSLRLSCAASGRTFSYNPMGWFRQAPGKGRELVAAISRTGGSTYYPESVEGRFTISRDNAKRTVYLQMNSLRAEDTAVYYCAAAGVRAEQGRVRTLPSEYTFWGQGTQVTVSS
